According to patent US20240190943A1 (HANGZHOU EXEGENESIS BIO, published 2024):

Columns and labels:
angiopoietin 2 = target: T1, angiopoietin 2 (UniProt O15123 19-496, limits assumed); assay: Ang2 ELISA, shown relative to Exg102-04; middle bar of each group
T1 construct: also called Ang2; ANGPT2
T1 sequence (looked up): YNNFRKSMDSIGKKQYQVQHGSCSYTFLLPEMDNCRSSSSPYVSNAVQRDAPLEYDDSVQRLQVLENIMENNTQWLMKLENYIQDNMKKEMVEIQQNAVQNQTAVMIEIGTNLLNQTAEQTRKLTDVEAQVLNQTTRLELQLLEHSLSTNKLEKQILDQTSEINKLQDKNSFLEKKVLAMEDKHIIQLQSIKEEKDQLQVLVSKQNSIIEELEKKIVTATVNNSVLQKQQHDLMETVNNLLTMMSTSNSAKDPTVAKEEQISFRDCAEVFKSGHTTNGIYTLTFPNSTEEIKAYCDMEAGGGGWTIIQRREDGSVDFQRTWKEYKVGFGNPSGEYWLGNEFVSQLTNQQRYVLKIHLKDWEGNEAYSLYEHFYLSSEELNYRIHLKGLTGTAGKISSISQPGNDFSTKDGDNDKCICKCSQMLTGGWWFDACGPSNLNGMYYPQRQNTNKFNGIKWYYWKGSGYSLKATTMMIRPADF

VEGF-A = target: T2, VEGF-A (UniProt P15692-4 27-191, limits assumed); assay: VEGF-A binding ELISA (OD450), titration in pM of the product of plasmid-transfected cells
T2 construct: also called rVEGF; vascular endothelial growth factor
T2 sequence (P15692 other isoform, or with tags, fused parts or gaps limits assumed): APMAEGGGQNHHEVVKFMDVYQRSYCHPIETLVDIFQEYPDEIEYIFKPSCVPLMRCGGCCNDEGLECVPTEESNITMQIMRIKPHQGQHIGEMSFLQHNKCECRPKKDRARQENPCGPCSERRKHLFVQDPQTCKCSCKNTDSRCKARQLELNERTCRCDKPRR

B1: control polypeptide without an Ang BD (Fc fusion)
chain: SDTGRPFVEMYSEIPEIIHMTEGRELVIPCRVTSPNITVTLKKFPLDTLIPDGKRIIWDSRKGFIISNATYKEIGLLTCEATVNGHLYKTNYLTHRQTNTIIDVVLSPSHGIELSVGEKLVLNCTARTELNVGIDFNWEYPSSKHQHKKLVNRDLKTQSGSEMKKFLSTLTIDGVTRSDQGLYTCAASSGLMTKKNSTFVRVHE
notes: Signal peptide left out; also called EXG102-02; EXG102-03-1; not shown: Fc fragment of human IgG
binding result (angiopoietin 2): no binding
EC50 (read off the curve) (VEGF-A): ~0.3 nM

B2: Exg102-13 (other)
fusion polypeptide (Flt1 signal - VEGFR1 D2 - VEGFR2 D3 - Fc-Hinge - Ang BD): SDTGRPFVEMYSEIPEIIHMTEGRELVIPCRVTSPNITVTLKKFPLDTLIPDGKRIIWDSRKGFIISNATYKEIGLLTCEATVNGHLYKTNYLTHRQTNTIIDVVLSPSHGIELSVGEKLVLNCTARTELNVGIDFNWEYPSSKHQHKKLVNRDLKTQSGSEMKKFLSTLTIDGVTRSDQGLYTCAASSGLMTKKNSTFVRVHEKDKTHTCPPCPAPELLGGPSVGGGGGSGGGGGAQQEECEWDPWTCEHMGSGSATGGSGSTASSGSGSATHQEECEWDPWTCEHMLE
notes: Carries only the N-terminal 21 amino acids of the Fc (Fc-Hinger) and no full Fc; also called Exemplary polypeptide 4
binding result (angiopoietin 2): no binding
